Like-named read-outs stand apart in the source and are kept apart here. The star is where a group is joined. MBP = 4-(maleimido)benzophenone, alkylating the Cys, O=C(c1ccccc1)c1ccc(N2C(=O)CC(*)C2=O)cc1; Biotin = O=C1N[C@H]2[C@H](CS[C@H]2CCCCC(=O)*)N1

The text below walks through data of PMC2896254 (Biopolymers, 2009).

Holding throughout (test): pull-down
Experiment [1] addresses T1, Wild-type full-length Ffh carrying an N-terminal deca-His tag (E. coli, UniProt P0AGD7 1-453).
T1 sequence (looked up): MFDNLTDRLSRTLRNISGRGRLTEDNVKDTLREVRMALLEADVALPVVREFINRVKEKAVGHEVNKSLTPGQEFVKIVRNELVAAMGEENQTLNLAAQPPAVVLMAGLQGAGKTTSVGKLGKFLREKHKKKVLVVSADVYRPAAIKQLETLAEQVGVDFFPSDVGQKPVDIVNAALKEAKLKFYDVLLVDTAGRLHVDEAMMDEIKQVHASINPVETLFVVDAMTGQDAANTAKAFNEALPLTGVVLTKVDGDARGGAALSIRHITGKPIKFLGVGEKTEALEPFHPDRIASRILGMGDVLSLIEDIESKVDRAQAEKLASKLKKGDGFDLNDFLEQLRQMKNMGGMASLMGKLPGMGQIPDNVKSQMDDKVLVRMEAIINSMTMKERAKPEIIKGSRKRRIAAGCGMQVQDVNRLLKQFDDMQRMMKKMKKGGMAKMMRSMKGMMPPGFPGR

The target of experiment [2] is T1, Wild-type full-length Ffh carrying an …. The source holds these as a separate data set.
Experiment [3] deals with T2, His-tagged NG domain of Ffh (residues M1 to V300) (E. coli, UniProt P0AGD7 1-300).
T2 sequence (looked up): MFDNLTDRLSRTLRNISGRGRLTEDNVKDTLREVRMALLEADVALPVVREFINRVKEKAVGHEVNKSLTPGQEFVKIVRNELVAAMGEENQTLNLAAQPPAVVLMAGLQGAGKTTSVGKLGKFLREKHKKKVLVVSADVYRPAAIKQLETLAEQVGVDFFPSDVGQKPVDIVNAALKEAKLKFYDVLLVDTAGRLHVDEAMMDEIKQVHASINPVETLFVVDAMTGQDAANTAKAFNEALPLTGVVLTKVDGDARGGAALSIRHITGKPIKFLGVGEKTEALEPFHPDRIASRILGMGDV

In experiment [4] the target is T3, His-tagged M domain of Ffh (M297 to R453) (E. coli, UniProt P0AGD7 297-453).
T3 sequence (looked up): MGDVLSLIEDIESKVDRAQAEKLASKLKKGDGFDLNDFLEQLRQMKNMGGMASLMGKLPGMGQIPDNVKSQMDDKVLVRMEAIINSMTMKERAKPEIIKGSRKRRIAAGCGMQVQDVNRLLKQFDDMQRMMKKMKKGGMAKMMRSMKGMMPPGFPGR

B1: BioPhoAC10 (peptide)
peptide: Biotin-MKQKKKLALCLLLLLLTPVTKA-NH2
SMILES: CSCC[C@H](NC(=O)CCCC[C@@H]1SC[C@@H]2NC(=O)N[C@@H]21)C(=O)N[C@@H](CCCCN)C(=O)N[C@@H](CCC(N)=O)C(=O)N[C@@H](CCCCN)C(=O)N[C@@H](CCCCN)C(=O)N[C@@H](CCCCN)C(=O)N[C@@H](CC(C)C)C(=O)N[C@@H](C)C(=O)N[C@@H](CC(C)C)C(=O)N[C@@H](CS)C(=O)N[C@@H](CC(C)C)C(=O)N[C@@H](CC(C)C)C(=O)N[C@@H](CC(C)C)C(=O)N[C@@H](CC(C)C)C(=O)N[C@@H](CC(C)C)C(=O)N[C@@H](CC(C)C)C(=O)N[C@H](C(=O)N1CCC[C@H]1C(=O)N[C@H](C(=O)N[C@H](C(=O)N[C@@H](CCCCN)C(=O)N[C@@H](C)C(N)=O)[C@@H](C)O)C(C)C)[C@@H](C)O
For B1, in experiment [1], the binding result is listed as “binds”.

B2: BioPhoAC14 (peptide)
peptide: Biotin-MKQKKKLALLLLLCLLTPVTKA-NH2
SMILES: CSCC[C@H](NC(=O)CCCC[C@@H]1SC[C@@H]2NC(=O)N[C@@H]21)C(=O)N[C@@H](CCCCN)C(=O)N[C@@H](CCC(N)=O)C(=O)N[C@@H](CCCCN)C(=O)N[C@@H](CCCCN)C(=O)N[C@@H](CCCCN)C(=O)N[C@@H](CC(C)C)C(=O)N[C@@H](C)C(=O)N[C@@H](CC(C)C)C(=O)N[C@@H](CC(C)C)C(=O)N[C@@H](CC(C)C)C(=O)N[C@@H](CC(C)C)C(=O)N[C@@H](CC(C)C)C(=O)N[C@@H](CS)C(=O)N[C@@H](CC(C)C)C(=O)N[C@@H](CC(C)C)C(=O)N[C@H](C(=O)N1CCC[C@H]1C(=O)N[C@H](C(=O)N[C@H](C(=O)N[C@@H](CCCCN)C(=O)N[C@@H](C)C(N)=O)[C@@H](C)O)C(C)C)[C@@H](C)O
For the molecule B2, in experiment [2], the binding result is given as “binds”.

B3: BioPhoAC12 (peptide)
peptide: Biotin-MKQKKKLALLLCLLLLTPVTKA-NH2
SMILES: CSCC[C@H](NC(=O)CCCC[C@@H]1SC[C@@H]2NC(=O)N[C@@H]21)C(=O)N[C@@H](CCCCN)C(=O)N[C@@H](CCC(N)=O)C(=O)N[C@@H](CCCCN)C(=O)N[C@@H](CCCCN)C(=O)N[C@@H](CCCCN)C(=O)N[C@@H](CC(C)C)C(=O)N[C@@H](C)C(=O)N[C@@H](CC(C)C)C(=O)N[C@@H](CC(C)C)C(=O)N[C@@H](CC(C)C)C(=O)N[C@@H](CS)C(=O)N[C@@H](CC(C)C)C(=O)N[C@@H](CC(C)C)C(=O)N[C@@H](CC(C)C)C(=O)N[C@@H](CC(C)C)C(=O)N[C@H](C(=O)N1CCC[C@H]1C(=O)N[C@H](C(=O)N[C@H](C(=O)N[C@@H](CCCCN)C(=O)N[C@@H](C)C(N)=O)[C@@H](C)O)C(C)C)[C@@H](C)O
Take B3: in experiment [2], the binding result is reported as “binds”.

B4: BioPhoAC11 (peptide)
peptide: Biotin-MKQKKKLALLCLLLLLTPVTKA-NH2
SMILES: CSCC[C@H](NC(=O)CCCC[C@@H]1SC[C@@H]2NC(=O)N[C@@H]21)C(=O)N[C@@H](CCCCN)C(=O)N[C@@H](CCC(N)=O)C(=O)N[C@@H](CCCCN)C(=O)N[C@@H](CCCCN)C(=O)N[C@@H](CCCCN)C(=O)N[C@@H](CC(C)C)C(=O)N[C@@H](C)C(=O)N[C@@H](CC(C)C)C(=O)N[C@@H](CC(C)C)C(=O)N[C@@H](CS)C(=O)N[C@@H](CC(C)C)C(=O)N[C@@H](CC(C)C)C(=O)N[C@@H](CC(C)C)C(=O)N[C@@H](CC(C)C)C(=O)N[C@@H](CC(C)C)C(=O)N[C@H](C(=O)N1CCC[C@H]1C(=O)N[C@H](C(=O)N[C@H](C(=O)N[C@@H](CCCCN)C(=O)N[C@@H](C)C(N)=O)[C@@H](C)O)C(C)C)[C@@H](C)O
Take B4: the binding result in experiment [1], in experiment [3] and in experiment [4] was “binds” each time.

B5: BioPhoAC13 (peptide)
peptide: Biotin-MKQKKKLALLLLCLLLTPVTKA-NH2
SMILES: CSCC[C@H](NC(=O)CCCC[C@@H]1SC[C@@H]2NC(=O)N[C@@H]21)C(=O)N[C@@H](CCCCN)C(=O)N[C@@H](CCC(N)=O)C(=O)N[C@@H](CCCCN)C(=O)N[C@@H](CCCCN)C(=O)N[C@@H](CCCCN)C(=O)N[C@@H](CC(C)C)C(=O)N[C@@H](C)C(=O)N[C@@H](CC(C)C)C(=O)N[C@@H](CC(C)C)C(=O)N[C@@H](CC(C)C)C(=O)N[C@@H](CC(C)C)C(=O)N[C@@H](CS)C(=O)N[C@@H](CC(C)C)C(=O)N[C@@H](CC(C)C)C(=O)N[C@@H](CC(C)C)C(=O)N[C@H](C(=O)N1CCC[C@H]1C(=O)N[C@H](C(=O)N[C@H](C(=O)N[C@@H](CCCCN)C(=O)N[C@@H](C)C(N)=O)[C@@H](C)O)C(C)C)[C@@H](C)O
As for B5, the binding result in experiment [2] was “binds”.

B6: BioPhoAC11-BP (peptide)
peptide: Biotin-MKQKKKLALLC(MBP)LLLLLTPVTKA-NH2
SMILES: CSCC[C@H](NC(=O)CCCC[C@@H]1SC[C@@H]2NC(=O)N[C@@H]21)C(=O)N[C@@H](CCCCN)C(=O)N[C@@H](CCC(N)=O)C(=O)N[C@@H](CCCCN)C(=O)N[C@@H](CCCCN)C(=O)N[C@@H](CCCCN)C(=O)N[C@@H](CC(C)C)C(=O)N[C@@H](C)C(=O)N[C@@H](CC(C)C)C(=O)N[C@@H](CC(C)C)C(=O)N[C@@H](CSC1CC(=O)N(c2ccc(C(=O)c3ccccc3)cc2)C1=O)C(=O)N[C@@H](CC(C)C)C(=O)N[C@@H](CC(C)C)C(=O)N[C@@H](CC(C)C)C(=O)N[C@@H](CC(C)C)C(=O)N[C@@H](CC(C)C)C(=O)N[C@H](C(=O)N1CCC[C@H]1C(=O)N[C@H](C(=O)N[C@H](C(=O)N[C@@H](CCCCN)C(=O)N[C@@H](C)C(N)=O)[C@@H](C)O)C(C)C)[C@@H](C)O
For the molecule B6, the binding result in experiment [1] is given as “binds”.
